Data on four substances can be found in paper PMC4442525.

Common to all, as to assay: pHLA tetramer staining of transfected HEK293T cells
The target in test [1] is HLA-B*57:01-LF9 L8 tetramer. The conditions noted are these: parent: est. 58; read off a plot.
Test [2] concerns the target HLA-B*57:01-LF9 A8 tetramer. Conditions: parent: est. 57; read off a plot.
For test [3], the target named is HLA-B*57:01-TW10 T3N tetramer. The conditions noted are these: read off a plot; for response: parent: est. 19, scale: relative to HLA-B*57:01-TW10 binding to KIR3DL1*001; for percent of parent (normalized to *001 (=100)): parent: est. 100.
Test [4] has as its target HLA-B*57:01-TW10 tetramer. Conditions: parent: est. 100, read off a plot; for response: scale: relative to HLA-B*57:01-TW10 binding to KIR3DL1*001.

Turning to “FLAG-tagged KIR3DL1*001 (from UniProt P43629) G138W”, the response in test [1] amounted to 23; in test [2] it was 40; in test [3], 10. Besides, in test [3], the percent of parent (normalized to *001 (=100)) came out at 44.

As to “FLAG-tagged KIR3DL1*001 (from UniProt P43629) L166R”, the response in test [1] stood at 5; in test [2], 9; in test [3], 8; in test [4], 48. For the same substance, the percent of parent (normalized to *001 (=100)) is 36 in test [3] and 48 in test [4].

For “FLAG-tagged KIR3DL1*001 (from UniProt P43629) P163S”, the results for the response in test [2], in test [3] and in test [4] were 45, 9 and 97, respectively. For the same substance, the percent of parent (normalized to *001 (=100)) in test [3] was 41; in test [4], 97.

Regarding “FLAG-tagged KIR3DL1*001 (from UniProt P43629) P199L”, the response in test [2] was 70; in test [4], 190. The percent of parent (normalized to *001 (=100)) in test [4] stood at 190.
